According to US20170306346:

Biological target: GST-MYC2-HA (UniProt Q39204)
Sequence (Q39204 whole entry): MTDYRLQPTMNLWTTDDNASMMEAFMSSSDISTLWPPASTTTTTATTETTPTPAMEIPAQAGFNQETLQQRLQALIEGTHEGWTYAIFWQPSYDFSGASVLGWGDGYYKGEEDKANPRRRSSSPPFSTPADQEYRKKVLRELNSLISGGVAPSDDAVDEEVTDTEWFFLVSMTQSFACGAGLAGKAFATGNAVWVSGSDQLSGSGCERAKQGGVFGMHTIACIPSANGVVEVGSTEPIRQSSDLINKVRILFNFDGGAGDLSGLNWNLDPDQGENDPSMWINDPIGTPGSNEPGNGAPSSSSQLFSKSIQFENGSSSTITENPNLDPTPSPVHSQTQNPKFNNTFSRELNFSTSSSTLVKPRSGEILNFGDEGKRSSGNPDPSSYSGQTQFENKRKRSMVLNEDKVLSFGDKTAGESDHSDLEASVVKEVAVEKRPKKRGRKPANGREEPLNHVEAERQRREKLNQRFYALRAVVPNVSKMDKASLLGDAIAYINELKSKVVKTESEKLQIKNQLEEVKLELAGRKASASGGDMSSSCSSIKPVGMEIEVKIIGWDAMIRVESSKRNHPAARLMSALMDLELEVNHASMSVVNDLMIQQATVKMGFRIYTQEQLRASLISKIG

MBP-PUB11 (C247A)-myc
in vitro ubiquitination of MYC2 (E1, E2, Ub; Western blot): MBP-PUB11 (C247A)-myc mutant protein has no E3 activity for GST-MYC-HA
